Data published in paper PMC4344528, “Structural role of the flanking DNA in mariner transposon excision” (Nucleic Acids Research, 2015).

Biological target: the molecule itself
Experiment: crystal structure; pre-TS cleavage Mos1 paired-end complex: T216A/D249A transposase mixed equimolar with ds IR DNA substrate; hanging-drop vapour diffusion, 100 mM ammonium acetate, 20 mM MgCl2, 50 mM HEPES pH 7.0, 5% PEG 8000; 3.09 Å, C222(1)

B1: T216A/D249A Mos1 transposase double mutant (enzyme)
chain: MSSFVPNKEQTRTVLIFCFHLKKTAAESHRMLVEAFGEQVPTVKKCERWFQRFKSGDFDVDDKEHGKPPKRYEDAELQALLDEDDAQTQKQLAEQLEVSQQAVSNRLREMGKIQKVGRWVPHELNERQMERRKNTCEILLSRYKRKSFLHRIVTGDEKWIFFVSPKRKKSYVDPGQPATSTARPNRFGKKTMLCVWWDQSGVIYYELLKRGETVNAARYQQQLINLNRALQRKRPEYQKRQHRVIFLHANAPSHTARAVRDTLETLNWEVLPHAAYSPDLAPSDYHLFASMGHALAEQRFDSYESVKKWLDEWFAAKDDEFYWRGIHKLPERWEKCVASDGKY
notes: mariner Mos1 transposase, from the codon-optimized Mos1 gene; T216A allows soluble expression in E. coli, D249A is the active site mutation; Crystallised as a paired-end complex (PEC): a transposase dimer with two DNA substrates (33 nt transferred strand, 25 nt non-transferred strand); PDB 3HOS is the post-cleavage PEC of the parent transposase, without D249A; also called T216A/D249A mutant …
stoichiometry N: 2
